Data published in PMC8065580, “A Lipid Bodies-Associated Galactosyl Hydrolase Is Involved in Triacylglycerol Biosynthesis and Galactolipid Turnover in the Unicellular Green Alga Chlamydomonas reinhardtii” (Plants, 2021).

Substrate: O=[N+]([O-])c1ccccc1O[C@@H]1O[C@H](CO)[C@H](O)[C@H](O)[C@H]1O
Assay: purified protein
Format: biochemical, Chlamydomonas reinhardtii
Conditions: 30 mM magnesium chloride buffer, pH 7.3, 37 °C, MBP fusion

B1: CrGH (Chlamydomonas reinhardtii) (protein)
chain: MTGSGKPAANKATANGDGEPVRFLKGAAISVWQNSGDDDSNWTRFAKSRWPFRSFGVSAIRGKYNIDKCSDFWNNYERDIKLAADIGSTTFRFSIEWARIEPLRGVFDMEAVHRYHQMLDCMAAHGLVPNATLWHFVHPTWFEQAGGWTKEENIPAFVRFSVKCFEWFKDKITLWATFNEPTCYMFLAFIVGIAPPGRIMDLVTAGRMLSTMLKAHTATYRAIKAAPGGQAAQVGLVSHHITFEPQGTGILYGVSKVLSDWMTYWWGWDVVHHWMLTGEFVWKLPVLGVWQRWQDPAGRPPCDWWGINYYSRGIFSWYLAPSCRESEVMTDMYYPIYPEGLYKCIKRCSEFGIPMYITETGIADARDDRRALMIDSYMKATLRAVAEGCDVRGLYYWTLLDNLEWATGYTMKFGLYAWEPDGSVDRKLKEGSKTLVRYFKTLPDDLAGVRAAARQVQGQLGEDLGVEAALEEEGVTRVAAGGKLVVGEAAGKGGEAEGRKAVGMVAIG
notes: full-length CDS (1527-bp ORF, about 508 residues) in pMAL-c5x, MBP fusion, about 98 kDa, E. coli BL21(DE3), amylose resin; tag cleavage not mentioned; GH family 1, motifs TFNEP and ITETG
Question: Which results are given for B1?
Answer: Km: 13.98 µM; kcat: 3.62 s⁻¹
